Assay results taken from US12416034B2, “Recombinant production of steviol glycosides” (EVOLVA SA, priority 2011, dated 2025).

Assays:
[1] = In vitro transcribed and translated UGTs incubated with RebA and UDP-glucose, LC-MS; type: biochemical
Experimental: In vitro transcription and translation of these genes was performed, and the resulting UGTs incubated with RebA and UDP-glucose. Following incubation, the reactions were analyzed by LC-MS. […] See LC-MS chromatograms in FIG. 4. As shown in the left panel of FIG. 4, UGT91D2e produced a trace amount of RebD when RebA was used as the feedstock.
EUGT11 was produced by in vitro transcription and translation, and incubated with various substrates in the RebD pathway. Similar experiments were carried out using in vitro transcribed and translated UGT91D2e. […] Compounds 1-3 were identified solely by mass and expected retention time. The numbers shown in FIG. 3 are the average peak height of the indicated steviol glycoside obtained from a LC-MS chromatogram, and, although not quantitative, can be used to compare the activity of the two enzymes. […] Both enzymes were able to convert steviol 19-O-monoglucoside (SMG) to compound 1, with EUGT11 being about ten times more efficient than UGT91D2e at converting 19-SMG to compound 1.
Both enzymes were able to convert RebA to RebD. However, EUGT11 was approximately 30 times better at converting RebA to RebD. Overall, it appears that EUGT11 produces more product than UGT91D2e in all reactions (with similar time, concentrations, temperature, and purity of enzyme) except the conversion of rubusoside to stevioside.

[2] = Enzyme kinetics with RebA as substrate; type: biochemical; settings: Reb A
Experimental: A series of experiments were performed to determine kinetic parameters of EUGT11 and 91D2e-b. For both enzymes, 100 μM RebA, 300 μM UDP-glucose, and 10 U/mL Alkaline Phosphatase (Fermentas/Thermo Fisher, Waltham, MA) were used in the reactions. For EUGT11, the reactions were performed at 37° C. using 100 mM Tris-HCl, pH 7, and 2% enzyme. For 91D2e-b, the reactions were performed at 30° C. using 20 mM Hepes-NaOH, pH 7.6, 20% (by volume) enzyme. The initial velocities (V0) were calculated in the linear range of a product versus time plot.
To first investigate the linearity intervals, initial time-courses were done for each enzyme. EUGT11 was assayed at 37° C. for 48 h at initial concentrations of 100 μM RebA and 300 μM UDP-glucose. UGT91D2e-b was assayed at 37° C. for 24 h at initial concentrations of 200 μM RebA and 600 μM UDP-glucose. Based on these range-finding studies, it was determined that the initial 10 minutes in the case of EUGT11, and the initial 20 minutes in UGT91D2e-b would be in the linear range with respect to product formation, and therefore initial velocities of each reaction were calculated in those intervals. In the case of EUGT11, RebA concentrations assayed were 30 μM, 50 μM, 100 μM, 200 μM, 300 μM and 500 μM. Concentration of UDP-glucose was always three times the concentration of RebA and incubation was performed at 37° C. By plotting the calculated V0 as a function of the substrate concentrations, Michaelis-Menten curves were generated. By plotting the reciprocal of V0 and the reciprocal of [S], a Lineweaver-Burk graphic was obtained, with y=339.85x+1.8644; R^2=0.9759.
Vmax and KM parameters were determined from the curve-fit Lineweaver-Burk data, calculated from the x- and y intercepts (x=0, y=1/Vmax) and (y=0, x=−1/KM). Additionally, the same parameters also were calculated by a non-linear least squares regression, using the SOLVER function in Excel. The results obtained with both methods for EUGT11 and RebA are presented in Table 12, along with all the kinetic parameters of this example. Kcat is calculated based on Vmax divided by the approximate amount of protein in the assay.
In the case of UGT91D2e-b, RebA concentrations assayed were 50 μM, 100 μM, 200 μM, 300 μM, 400 μM and 500 μM. Concentration of UDP-glucose was always three times the concentration of RebA and incubation was performed at 30° C., in the reaction conditions described above for UGT91D2e-b. Additionally, kinetic parameters of UGT91D2e-b towards UDP-glucose were determined. UGT91D2e-b was incubated with increasing amounts of UDP-glucose (30 μM, 50 μM, 100 μM, and 200 μM), maintaining an excess of RebA (1500 μM). incubation was performed at 30° C., in optimal conditions for UGT91D2e-b.

B1: EUGT11: UDP glycosyl transferase from Oryza sativa (GenBank AC133334), SEQ ID NO:152 (protein, listed as Oryza sativa)
chain: MDSGYSSSYAAAAGMHVVICPWLAFGHLLPCLDLAQRLASRGHRVSFVSTPRNISRLPPVRPALAPLVAFVALPLPRVEGLPDGAESTNDVPHDRPDMVELHRRAFDGLAAPFSEFLGTACADWVIVDVFHHWAAAAALEHKVPCAMMLLGSAHMIASIADRRLERAETESPAAAGQGRPAAAPTFEVARMKLIRTKGSSGMSLAERFSLTLSRSSLVVGRSCVEFEPETVPLLSTLRGKPITFLGLMPPLHEGRREDGEDATVRWLDAQPAKSVVYVALGSEVPLGVEKVHELALGLELAGTRFLWALRKPTGVSDADLLPAGFEERTRGRGVVATRWVPQMSILAHAAVGAFLTHCGWNSTIEGLMFGHPLIMLPIFGDQGPNARLIEAKNAGLQVARNDGDGSFDREGVAAAIRAVAVEEESSKVFQAKAKKLQEIVADMACHERYIDGFIQQLRSYKD
- amount of RebD produced when RebA was used as the feedstock ([1]; LC-MS chromatograms, FIG. 4): significant amount
- efficiency at converting RebA to RebD compared with UGT91D2e ([1]; in vitro transcribed and translated enzymes, preliminary quantification): approximately 30 times
- Kcat ([2]; Lineweaver-Burk plot): 0.14 s⁻¹
- Km ([2]; Lineweaver-Burk plot): 182 µM
- Vmax ([2]; Lineweaver-Burk plot): 0.54 µM/min
- Kcat ([2]; Nonlinear Least Square Fit): 0.135 s⁻¹
- Km ([2]; Nonlinear Least Square Fit): 162 µM
- Vmax ([2]; Nonlinear Least Square Fit): 0.52 µM/min
